Laboratory results from US20220042033A1, “COMPOSITION AND METHOD FOR CONFERRING AND/OR ENHANCING TOLERANCE AGAINST HERBICIDES BY USING VARIANTS OF PPO” (FarmHannong Co., Ltd., priority 2017, published 2022).
Substitutions are numbered along the chain they refer to. Numbers in names are those of the source.

B1: A170C + M365V: MxPPO (SEQ ID NO: 3) variant (protein)
chain: MHHMPRTTGMNVAVVGGGISGLAVAHHLRSRGTDAVLLESSARLGGAVGTHALAGYLVEQGPNSFLDREPATRALAAALNLEGRIRAADPAAKRRYVYTRGRLRSVPASPPAFLASDILPLGARLRVAGELFSRRAPEGVDESLAAFGRRHLGHRATQVLLDAVQTGIYCGDVEQLSVAATFPMLVKMEREHRSLILGAIRAQKAQRQAALPAGTAPKLSGALSTFDGGLQVLIDALAASLGDAAHVGARVEGLAREDGGWRLIIEEHGRRAELSVAQVVLAAPAHATAKLLRPLDDALAALVAGIAYAPIAVVHLGFDAGTLPAPDGFGFLVPAEEQRRMLGAIHASTTFPFRAEGGRVLYSCVVGGARQPGLVEQDEDALAALAREELKALAGVTARPSFTRVFRWPLGIPQYNLGHLERVAAIDAALQRLPGLHLIGNAYKGVGLNDCIRNAAQLADALVAGNTSHAP
modifications: Synthetic (Protoporphyrinogen IX oxidase (MxPPO) of Myxococcus xanthus)
B2: I311M + M365I: MxPPO (SEQ ID NO: 3) variant (protein)
chain: B1 chain with C170A, I311M, V365I
modifications: Synthetic (Protoporphyrinogen IX oxidase (MxPPO) of Myxococcus xanthus)
B3: I311M + M365V: MxPPO (SEQ ID NO: 3) variant (protein)
chain: B1 chain with C170A, I311M
modifications: Synthetic (Protoporphyrinogen IX oxidase (MxPPO) of Myxococcus xanthus)
B4: L332T + M365V: MxPPO (SEQ ID NO: 3) variant (protein)
chain: B1 chain with C170A, L332T
modifications: Synthetic (Protoporphyrinogen IX oxidase (MxPPO) of Myxococcus xanthus)
B5: I168C + I311M + M365I: MxPPO (SEQ ID NO: 3) variant (protein)
chain: B1 chain with I168C, C170A, I311M, V365I
modifications: Synthetic (Protoporphyrinogen IX oxidase (MxPPO) of Myxococcus xanthus)
B6: I168C + L332T + M365V: MxPPO (SEQ ID NO: 3) variant (protein)
chain: B1 chain with I168C, C170A, L332T
modifications: Synthetic (Protoporphyrinogen IX oxidase (MxPPO) of Myxococcus xanthus)
B7: I311M: MxPPO (SEQ ID NO: 3) variant (protein)
chain: B1 chain with C170A, I311M, V365M
modifications: Synthetic (Protoporphyrinogen IX oxidase (MxPPO) of Myxococcus xanthus)
B8: A170C + M365I: MxPPO (SEQ ID NO: 3) variant (protein)
chain: B1 chain with V365I
modifications: Synthetic (Protoporphyrinogen IX oxidase (MxPPO) of Myxococcus xanthus)
B9: L332T + M365I: MxPPO (SEQ ID NO: 3) variant (protein)
chain: B1 chain with C170A, L332T, V365I
modifications: Synthetic (Protoporphyrinogen IX oxidase (MxPPO) of Myxococcus xanthus)
B10: R95A + I168C + M365I: MxPPO (SEQ ID NO: 3) variant (protein)
chain: B1 chain with R95A, I168C, C170A, V365I
modifications: Synthetic (Protoporphyrinogen IX oxidase (MxPPO) of Myxococcus xanthus)
B11: R95A + A170C + M365I: MxPPO (SEQ ID NO: 3) variant (protein)
chain: B1 chain with R95A, V365I
modifications: Synthetic (Protoporphyrinogen IX oxidase (MxPPO) of Myxococcus xanthus)
B12: R95A + I311M + M365V: MxPPO (SEQ ID NO: 3) variant (protein)
chain: B1 chain with R95A, C170A, I311M
modifications: Synthetic (Protoporphyrinogen IX oxidase (MxPPO) of Myxococcus xanthus)
B13: R95A + L332T + M365I: MxPPO (SEQ ID NO: 3) variant (protein)
chain: B1 chain with R95A, C170A, L332T, V365I
modifications: Synthetic (Protoporphyrinogen IX oxidase (MxPPO) of Myxococcus xanthus)
B14: I168C + A170C + M365V: MxPPO (SEQ ID NO: 3) variant (protein)
chain: B1 chain with I168C
modifications: Synthetic (Protoporphyrinogen IX oxidase (MxPPO) of Myxococcus xanthus)
B15: A170C + I311M + M365I: MxPPO (SEQ ID NO: 3) variant (protein)
chain: B1 chain with I311M, V365I
modifications: Synthetic (Protoporphyrinogen IX oxidase (MxPPO) of Myxococcus xanthus)

test system: MxPPO; assay: Herbicide tolerance test of MxPPO wild type and variants in PPO-deficient E. coli BT3(ΔPPO), growth on herbicide-containing LB agar; type: cell-based, Myxococcus xanthus; conditions: relative to MxPPO WT, light, 2000 μM (FIG. 14)
Experimental: Then, the extent of tolerance was evaluated.

| Molecule | Herbicide tolerance, tiafenacil |
| --- | --- |
| B1 | + (1-9 fold higher tolerance) |
| B2 | + (1-9 fold higher tolerance) |
| B3 | + (1-9 fold higher tolerance) |
| B4 | + (1-9 fold higher tolerance) |
| B5 | + (1-9 fold higher tolerance) |
| B6 | + (1-9 fold higher tolerance) |

same assay, conditions: relative to MxPPO WT, light, up to 100 μM (FIG. 13)

| Molecule | Herbicide tolerance, flumioxazin |
| --- | --- |
| B7 | ++ (10-99 fold higher tolerance) |

same assay, conditions: relative to MxPPO WT, light, up to 200 μM (FIG. 13)

| Molecule | Herbicide tolerance, saflufenacil |
| --- | --- |
| B7 | ++ (10-99 fold higher tolerance) |

same assay, conditions: relative to MxPPO WT, light, up to 400 μM (FIGS. 15-17)

| Molecule | Herbicide tolerance, flumioxazin |
| --- | --- |
| B8 | + (1-9 fold higher tolerance) |
| B1 | ++ (10-99 fold higher tolerance) |
| B2 | ++ (10-99 fold higher tolerance) |
| B3 | ++ (10-99 fold higher tolerance) |
| B9 | + (1-9 fold higher tolerance) |
| B4 | + (1-9 fold higher tolerance) |
| B10 | + (1-9 fold higher tolerance) |
| B11 | + (1-9 fold higher tolerance) |
| B12 | ++ (10-99 fold higher tolerance) |
| B13 | + (1-9 fold higher tolerance) |
| B14 | ++ (10-99 fold higher tolerance) |
| B5 | ++ (10-99 fold higher tolerance) |
| B6 | +++ (100-999 fold higher tolerance) |
| B15 | ++ (10-99 fold higher tolerance) |

same assay, conditions: relative to MxPPO WT, light, up to 1000 μM (FIGS. 18-20)

| Molecule | Herbicide tolerance, sulfentrazone |
| --- | --- |
| B8 | + (1-9 fold higher tolerance) |
| B1 | + (1-9 fold higher tolerance) |
| B2 | + (1-9 fold higher tolerance) |
| B3 | + (1-9 fold higher tolerance) |
| B9 | + (1-9 fold higher tolerance) |
| B4 | + (1-9 fold higher tolerance) |
| B10 | + (1-9 fold higher tolerance) |
| B11 | + (1-9 fold higher tolerance) |
| B12 | + (1-9 fold higher tolerance) |
| B13 | + (1-9 fold higher tolerance) |
| B14 | ++ (10-99 fold higher tolerance) |
| B5 | + (1-9 fold higher tolerance) |
| B6 | ++ (10-99 fold higher tolerance) |
| B15 | + (1-9 fold higher tolerance) |

test system: MxPPO; assay: PPO enzyme activity of purified MBP-fused MxPPO wild type and variants; type: biochemical, Myxococcus xanthus; conditions: PPO enzyme activity of purified MxPPO protein, relative to wild type
Experimental: Thus, PPO proteins of wild type and variants were expressed as fused to MBP and were used for experiments.
The following process for purification of PPO protein was performed in a 4° C. cold room. […] The column was washed with 3 column volumes of buffer and the presence of protein in the washing solution was examined. When the protein was no longer detected, the washing procedure was terminated. Then, the MBP-PPO protein was eluted with approximately 2 column volumes of buffer containing 20 mM maltose. The protein concentration of each eluent was determined and the elution was stopped when the protein was no longer detected. Ten microliter of each fraction was investigated for protein quantification and SDS-PAGE analysis. The highly pure fractions of PPO protein variants were used for the enzyme assay.
Since protoporphyrinogen IX, a substrate of PPO protein, was not commercially available, it was chemically synthesized in the laboratory. Overall process was performed in dark under nitrogen stream. […] of protoporphyrin IX was dissolved in 20 ml of 20% (v/v) EtOH, and stirred under dark condition for 30 minutes. The obtained protoporphyrin IX solution was put into a 15 ml screw tube in an amount of 800 μl, and flushed with nitrogen gas for 5 minutes. To this, 1.5 g of sodium amalgam was added and vigorously shaken for 2 minutes. The lid was opened to exhaust hydrogen gas in the tube. Thereafter, the lid was closed and incubated for 3 minutes. The protoporphyrinogen IX solution was filtered using syringe and cellulose membrane filter. To 600 μl of the obtained protoporphyrinogen IX solution, approximately 300 μl of 2M MOPS [3-(N-morpholino) propanesulfonic acid] was added to adjust pH to 8.0. To determine the enzyme activity of PPO protein, a reaction mixture was prepared with the following composition (based on 10 ml): 50 mM Tris-Cl (pH 8.0); 50 mM NaCl; 0.04% (v/v) Tween 20; 40 mM glucose (0.072 g); 5 units glucose oxidase (16.6 mg); and 10 units catalase (1 μl).
Hundred and eighty microliters of a reaction mixture […] were placed in 96 well plates and 20 μl of purified PPO proteins were added. After 50 μl of the mineral oil was layered, the reaction was initiated by adding the substrate, protoporphyrinogen IX solution, to a final concentration of 50 μM. The reaction proceeded at room temperature for 30 min and the fluorescence of protoporphyrin IX was measured using Microplate reader (Sense, Hidex) (excitation: 405 nm; emission: 633 nm). To calculate the PPO enzyme activity, the protoporphyrinogen IX solution was kept open in the air overnight to oxidize the solution. To this, 2.7 N HCl was added, and the absorbance at 408 nm was measured. A standard curve was generated using standard protoporphyrin IX, and PPO activity was measured by calibration of protoporphyrin IX using the standard curve of protoporphyrin IX.
Activities of variants were presented relatively compared to that of wild type.

| Molecule | Activity (%) |
| --- | --- |
| B7 | 87 |
| B8 | 78 |
| B1 | 71 |
| B2 | 75 |
| B3 | 71 |
| B9 | 80 |
| B4 | 68 |
| B10 | 38 |
| B11 | 41 |
| B12 | 37 |
| B13 | 38 |
| B14 | 45 |
| B5 | 47 |
| B6 | 49 |
| B15 | 69 |
